The values below come from patent US20120208867A1.

Experiment [1] has as its target TLR-2 in which His-tag was added to the N-terminus (His-tag-added TLR-2). Nature of the experiment: pull-down of HMGB1 (2 ug) with His-tag-added TLR-2 (2 ug) on Co2+ agarose beads, Western blot with anti-HMGB1 antibody; lane '-': no tRNA, no RNA aptamer. A general note: In western blotting, separated proteins are transferred to a membrane and probed.
For experiment [2] the target is unchanged. Description: pull-down of HMGB1 (2 ug) with His-tag-added TLR-2 (2 ug) on Co2+ agarose beads, Western blot with anti-HMGB1 antibody; tRNA added, in the presence of 4 ug of 40N RNA library (comparative example).
Experiment [3] has the same target. Nature of the experiment: pull-down of HMGB1 (2 ug) with His-tag-added TLR-2 (2 ug) on Co2+ agarose beads, Western blot with anti-HMGB1 antibody; tRNA added, in the presence of 2 ug of 40N RNA library (comparative example).
The target is the same in experiment [4]. Description: pull-down of HMGB1 (2 ug) with His-tag-added TLR-2 (2 ug) on Co2+ agarose beads, Western blot with anti-HMGB1 antibody; tRNA added, in the presence of 1 ug of RNA aptamer R8c6_1-18 as inhibitor.
For experiment [5] the target is unchanged. Nature of the experiment: pull-down of HMGB1 (2 ug) with His-tag-added TLR-2 (2 ug) on Co2+ agarose beads, Western blot with anti-HMGB1 antibody; lane '+': tRNA added, no RNA aptamer (reference lane, set to 100).
Experiment [6] has the same target. Nature of the experiment: pull-down of HMGB1 (2 ug) with His-tag-added TLR-2 (2 ug) on Co2+ agarose beads, Western blot with anti-HMGB1 antibody; tRNA added, in the presence of 1 ug of 40N RNA library (comparative example).
Experiment [7] has the same target. Description: pull-down of HMGB1 (2 ug) with His-tag-added TLR-2 (2 ug) on Co2+ agarose beads, Western blot with anti-HMGB1 antibody; tRNA added, in the presence of 2 ug of RNA aptamer R8c6_1-18 as inhibitor.
Experiment [8] shares this target. Nature of the experiment: pull-down of HMGB1 (2 ug) with His-tag-added TLR-2 (2 ug) on Co2+ agarose beads, Western blot with anti-HMGB1 antibody; tRNA added, in the presence of 4 ug of RNA aptamer R8c6_1-18 as inhibitor.

Sequence of TLR-2 in which His-tag was added to the N-terminus (His-tag-added TLR-2) (O60603 whole entry): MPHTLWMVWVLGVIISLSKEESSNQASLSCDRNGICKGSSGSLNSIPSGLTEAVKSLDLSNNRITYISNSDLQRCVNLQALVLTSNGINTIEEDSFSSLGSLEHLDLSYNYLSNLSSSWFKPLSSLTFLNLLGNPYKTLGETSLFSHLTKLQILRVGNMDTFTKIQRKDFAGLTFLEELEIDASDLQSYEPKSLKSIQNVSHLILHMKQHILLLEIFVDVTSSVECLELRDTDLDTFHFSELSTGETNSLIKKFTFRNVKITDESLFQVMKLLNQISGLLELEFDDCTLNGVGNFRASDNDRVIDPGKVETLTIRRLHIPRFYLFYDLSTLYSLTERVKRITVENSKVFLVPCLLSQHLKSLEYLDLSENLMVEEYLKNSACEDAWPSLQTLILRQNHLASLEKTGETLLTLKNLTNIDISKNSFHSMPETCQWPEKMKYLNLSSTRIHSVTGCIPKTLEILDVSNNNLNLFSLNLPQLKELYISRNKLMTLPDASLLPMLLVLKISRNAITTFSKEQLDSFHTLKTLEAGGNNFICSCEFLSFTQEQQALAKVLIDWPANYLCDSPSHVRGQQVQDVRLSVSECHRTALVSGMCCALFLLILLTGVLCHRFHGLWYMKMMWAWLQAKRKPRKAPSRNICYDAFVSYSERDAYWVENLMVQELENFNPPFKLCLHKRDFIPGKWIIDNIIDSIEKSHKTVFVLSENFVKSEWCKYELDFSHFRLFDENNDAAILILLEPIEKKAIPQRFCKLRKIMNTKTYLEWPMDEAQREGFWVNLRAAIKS
Sequence of HMGB1 protein (High-mobility group box 1 protein) (ligand) (P09429 whole entry): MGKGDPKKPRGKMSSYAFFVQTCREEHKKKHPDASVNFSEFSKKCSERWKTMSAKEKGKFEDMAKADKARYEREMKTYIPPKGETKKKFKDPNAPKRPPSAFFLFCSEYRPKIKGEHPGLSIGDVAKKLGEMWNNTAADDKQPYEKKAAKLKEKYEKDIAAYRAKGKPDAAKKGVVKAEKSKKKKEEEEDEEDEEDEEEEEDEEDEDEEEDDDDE

In the case of “HMGB1 protein (High-mobility group box 1 protein) (ligand)”, the HMGB1/TLR-2 (HMGB1 band corrected for TLR-2, relative to lane '+' = 100) was 60 in experiment [1]; 85 in experiment [2]; 84 in experiment [3]; 113 in experiment [4]; 100 in experiment [5]; 108 in experiment [6]. Besides, the HMGB1/TLR-2 (HMGB1 band corrected for TLR-2, relative to lane '+' = 100) in experiment [7] stood at 61; in experiment [8], 29.
